Molecular target: MHC II molecules of Flt3L-mobilized splenic CD11c+ DCs from Balb/c×C57Bl/6 (I-A^b,d/E^d) F1 mice (mouse (endogenous in splenic DCs))
Experiment: affinity purification with mass spectrometry

B1: … MHC II peptide derived from endogenous apolipoprotein E (peptide)
peptide: KELEEQLGPVAEETR
amount of peptide eluted from MHC II: 15 fmol/µL
copies per cell presented on MHC II: 180 copies/cell

Source: publication PMC3408443
